Measurements reported in the Immune Epitope Database (IEDB).

Columns and labels:
HLA-B*44:02 [1] = assay: IEDB peptide-MHC binding, purified MHC/competitive/radioactivity; filed as Kd, often an IC50 or EC50 that approximates it; ≥ and ≤ were set here for values at or beyond the usual limits of such assays
HLA-B*40:01 [2] = assay: as above
HLA-B*40:02 = assay: as above
HLA-B*18:01 [3] = assay: as above
HLA-B*45:01 = assay: as above
HLA-B*44:03 = assay: as above
HLA-B*15:01 [4] = assay: IEDB peptide-MHC binding, purified MHC/competitive/fluorescence; ≥ and ≤ were set here for values at or beyond the usual limits of such assays; conditions: source organism: Zaire ebolavirus
HLA-A*02:01 [5] = assay: as above; conditions: source organism: Zaire ebolavirus
HLA-A*24:02 [6] = assay: as above; conditions: source organism: Zaire ebolavirus
HLA-B*35:01 = assay: IEDB peptide-MHC binding, purified MHC/competitive/fluorescence; filed as Kd, often an IC50 or EC50 that approximates it; ≥ and ≤ were set here for values at or beyond the usual limits of such assays; conditions: source organism: Influenza A virus (A/quail/Hong Kong/SF550/00(H6N1))
HLA-A*69:01 = assay: IEDB peptide-MHC binding, purified MHC/direct/fluorescence; filed as Kd, often an IC50 or EC50 that approximates it; ≥ and ≤ were set here for values at or beyond the usual limits of such assays
HLA-B*15:01 [7] = assay: as above
HLA-A*11:01 = assay: as above
HLA-A*02:01 [8] = assay: as above
HLA-B*58:01 = assay: as above
HLA-B*15:09 = assay: as above; conditions: source organism: Influenza A virus(A/swine/Shandong/fNY/2003(H9N2))
HLA-A*24:02 [9] = assay: as above
HLA-B*40:01 [10] = assay: as above
HLA-B*08:01 = assay: as above
HLA-B*07:02 = assay: as above
HLA-B*27:05 = assay: as above
HLA-A*01:01 = assay: as above
HLA-A*31:01 = assay: as above
HLA-A*03:01 = assay: as above
HLA-B*44:02 [11] = assay: as above; conditions: source organism: Influenza A virus (A/chicken/Hubei/wk/1997(H5N1))
HLA-B*46:01 = assay: as above; conditions: source organism: Influenza A virus (A/chicken/Hubei/wk/1997(H5N1))
HLA-B*18:01 [12] = assay: as above; conditions: source organism: Influenza A virus (A/chicken/Hubei/wk/1997(H5N1))
HLA-B*08:02 = assay: as above; conditions: source organism: Influenza A virus(A/swine/Shandong/fNY/2003(H9N2))
HLA-A*26:01 = assay: as above; conditions: source organism: Influenza A virus(A/swine/Shandong/fNY/2003(H9N2))
[13] = source organism: Mammarenavirus juninense
[14] = source organism: SARS coronavirus Tor2
[15] = source organism: Lymphocytic choriomeningitis virus (strain Armstrong)
[16] = source organism: Influenza A virus (A/equine/New York/1/1999(H3N8))
[17] = source organism: Influenza A virus (A/Puerto Rico/8/34/Mount Sinai(H1N1))
[18] = source organism: Influenza A virus (A/chicken/Hubei/wk/1997(H5N1))

In the case of LESLWAPFGV, the Kd (HLA-B*44:02 [1]; [13]) is reported as no less than 31800 nM, the Kd (HLA-B*40:01 [2]; [13]) is reported as no less than 24600 nM and the Kd (HLA-B*40:02; [13]) is reported as 159 nM. For the same sequence, the Kd (HLA-B*18:01 [3]; [13]) was 607 nM, the Kd (HLA-B*45:01; [13]) was 16100 nM and the Kd (HLA-B*44:03; [13]) was no less than 56400 nM.

VKYLEGHGF showed an IC50 (HLA-B*15:01 [4]) of no less than 72.1 µM, an IC50 (HLA-A*02:01 [5]) of no less than 160 µM and an IC50 (HLA-A*24:02 [6]) of 14.4 µM.

In the case of YQATGFGTN, the IC50 (HLA-B*15:01 [4]) is reported as 22.7 µM, the IC50 (HLA-A*02:01 [5]) is reported as no less than 146 µM and the IC50 (HLA-A*24:02 [6]) is reported as no less than 231 µM.

For AEAAVKPLLA, the Kd (HLA-B*44:02 [1]; [14]) was 105 nM, the Kd (HLA-B*40:01 [2]; [14]) was 164 nM and the Kd (HLA-B*40:02; [14]) was no less than 20100 nM. For the same sequence, the Kd (HLA-B*18:01 [3]; [14]) was no less than 55500 nM, the Kd (HLA-B*45:01; [14]) was 10.6 nM and the Kd (HLA-B*44:03; [14]) was 35.6 nM.

For QAFEAGVDF, the IC50 (HLA-B*15:01 [4]) was 30.6 µM, the IC50 (HLA-A*02:01 [5]) was no less than 475 µM and the IC50 (HLA-A*24:02 [6]) was 29.4 µM.

IEVALRTLL showed a Kd (HLA-B*44:02 [1]; [15]) of 14600 nM, a Kd (HLA-B*40:01 [2]; [15]) of 64.4 nM and a Kd (HLA-B*40:02; [15]) of 54.9 nM. The Kd (HLA-B*18:01 [3]; [15]) was 77.2 nM, the Kd (HLA-B*45:01; [15]) was 18300 nM and the Kd (HLA-B*44:03; [15]) was 3730 nM.

For PEFYEAMYT, the Kd (HLA-B*44:02 [1]; [14]) was 17400 nM, the Kd (HLA-B*40:01 [2]; [14]) was 3740 nM and the Kd (HLA-B*40:02; [14]) was 5050 nM. It also gave a Kd (HLA-B*18:01 [3]; [14]) of no less than 52400 nM, a Kd (HLA-B*45:01; [14]) of 3400 nM and a Kd (HLA-B*44:03; [14]) of 4910 nM.

Sequence VAGGTSSVY has a Kd (HLA-B*35:01) of 10.9 nM, a Kd (HLA-A*69:01; [16]) of no less than 20 µM and a Kd (HLA-B*15:01 [7]; [17]) of 129 nM. For the same sequence, the Kd (HLA-A*11:01; [16]) was no less than 20 µM, the Kd (HLA-A*02:01 [8]; [16]) was no less than 20 µM and the Kd (HLA-B*58:01; [16]) was 2890 nM. For the same sequence, the Kd (HLA-B*15:09) was no less than 20 µM, the Kd (HLA-A*24:02 [9]; [16]) was no less than 20 µM and the Kd (HLA-B*40:01 [10]; [16]) was no less than 20 µM. For the same sequence, the Kd (HLA-B*08:01; [16]) was no less than 20000 nM, the Kd (HLA-B*07:02; [16]) was no less than 20000 nM and the Kd (HLA-B*27:05; [16]) was no less than 20 µM. It also gave a Kd (HLA-A*01:01; [16]) of no less than 20 µM, a Kd (HLA-A*31:01; [16]) of no less than 20 µM and a Kd (HLA-A*03:01; [16]) of no less than 20 µM.

For AEWVLAYML, the Kd (HLA-B*44:02 [1]; [14]) was 13.9 nM, the Kd (HLA-B*40:01 [2]; [14]) was 4.75 nM and the Kd (HLA-B*40:02; [14]) was 4.02 nM. For the same sequence, the Kd (HLA-B*18:01 [3]; [14]) was 418 nM, the Kd (HLA-B*45:01; [14]) was 36.5 nM and the Kd (HLA-B*44:03; [14]) was 5.04 nM.

For SEQSLRLVDA, the Kd (HLA-B*44:02 [1]; [14]) was 91.6 nM, the Kd (HLA-B*40:01 [2]; [14]) was 18700 nM and the Kd (HLA-B*40:02; [14]) was 470 nM. The Kd (HLA-B*18:01 [3]; [14]) was 3610 nM, the Kd (HLA-B*45:01; [14]) was 5.86 nM and the Kd (HLA-B*44:03; [14]) was 436 nM.

Work on NPALRMKWM yielded a Kd (HLA-A*69:01; [18]) of no less than 20 µM, a Kd (HLA-B*15:01 [7]; [18]) of no less than 20000 nM and a Kd (HLA-B*44:02 [11]) of no less than 20 µM. For the same sequence, the Kd (HLA-A*11:01; [18]) was no less than 20 µM, the Kd (HLA-A*02:01 [8]; [18]) was no less than 20 µM and the Kd (HLA-B*58:01; [18]) was no less than 20000 nM. It also gave a Kd (HLA-B*15:09) of no less than 20 µM, a Kd (HLA-A*24:02 [9]; [18]) of no less than 20 µM and a Kd (HLA-B*46:01) of no less than 20 µM. For the same sequence, the Kd (HLA-B*40:01 [10]; [18]) was no less than 20 µM, the Kd (HLA-B*18:01 [12]) was no less than 20 µM and the Kd (HLA-B*08:02) was no less than 20 µM. It also gave a Kd (HLA-A*26:01) of no less than 20 µM, a Kd (HLA-B*08:01; [17]) of 1400 nM and a Kd (HLA-B*07:02; [17]) of 91 nM. The Kd (HLA-B*27:05; [18]) was no less than 20 µM, the Kd (HLA-A*01:01; [18]) was no less than 20 µM and the Kd (HLA-A*31:01; [18]) was no less than 20 µM. For the same sequence, the Kd (HLA-A*03:01; [18]) was no less than 20 µM.
